# Data from PMC5973699.
# Legend:
# [1] = biological target: GammaBind Plus resin ligand (affinity improved protein G); test: capture on affinity resin
# [2] = biological target: MabSelect SuRe resin ligand (engineered Protein A; alkaline resistant protein A domain); test: capture on affinity resin
substance,measurement,setting,value
rat IgG2a (antibody),Binding capacity (Batch Mode) (µg rat IgG2a /µL resin),[1],15
human IgG1 (pertuzumab) (antibody),"binding capacity, tip column, 2 pipetting cycles",[2],37 µg
same,"binding capacity, tip column, 4 pipetting cycles",[2],46 µg
same,"binding capacity, tip column, 6 pipetting cycles (µg human IgG1 per µL of resin)",[2],52
same,"binding capacity, tip column, 8 pipetting cycles (µg human IgG1 per µL of resin)",[2],54
same,"binding capacity, tip column, 9 pipetting cycles (µg human IgG1 per µL of resin)",[2],55
same,static binding capacity (batch mode) (µg human IgG1 per µL of resin),[2],62
mouse IgG1 (antibody),binding capacity (µg mouse IgG1 per µL resin),[2],25
